From patent publication US7998940B2, “Aptamers to von Willebrand factor and their use as thrombotic disease therapeutics” (Archemix Corp., priority 2004, dated 2011)
Changes are numbered by the printed parent chain.

B1: AMX237.C4: DNA SELEX 2 aptamer clone (nucleic acid)
DNA: CTACCTACGATCTGACTAGCTTTCAGTCTTCCACATTTATAGGGTTTGGCATTGGGTCTGGCTTACTCTCATGTAGTTCC
modifications: DNA, backbone not given here
notes: DNA SELEX 2 aptamer clone
B2: AMX238.H11: DNA SELEX 2 aptamer clone (nucleic acid)
DNA: B1 DNA with C31T
modifications: DNA, backbone not given here
notes: DNA SELEX 2 aptamer clone
B3: AMX237.G2: DNA SELEX 2 aptamer clone (nucleic acid)
DNA: B1 DNA with C31T, C34T
modifications: DNA, backbone not given here
notes: DNA SELEX 2 aptamer clone
B4: AMX237.F1: DNA SELEX 2 aptamer clone (nucleic acid)
DNA: B1 DNA with A35G
modifications: DNA, backbone not given here
notes: DNA SELEX 2 aptamer clone
B5: AMX237.F5: DNA SELEX 2 aptamer clone (nucleic acid)
DNA: B1 DNA with C24T
modifications: DNA, backbone not given here
notes: DNA SELEX 2 aptamer clone
B6: AMX237.E5: DNA SELEX 2 aptamer clone (nucleic acid)
DNA: B1 DNA with C32T
modifications: DNA, backbone not given here
notes: DNA SELEX 2 aptamer clone
B7: AMX238.G4: DNA SELEX 2 aptamer clone (nucleic acid)
DNA: CTACCTACGATCTGACTAGCTTGTCGCACTTTTGGTTGGTCTGGTTGGTTCTAAGTGCGCTTACTCTCATGTAGTTCC
modifications: DNA, backbone not given here
notes: DNA SELEX 2 aptamer clone
B8: AMX238.H9: DNA SELEX 2 aptamer clone (nucleic acid)
DNA: B7 DNA with C51T
modifications: DNA, backbone not given here
notes: DNA SELEX 2 aptamer clone
B9: AMX236.C1: DNA SELEX 2 aptamer clone (nucleic acid)
chain: CTACCTACGATCTGACTAGCGGAATGAGAATGTTGGTGGATTGCTCAGGTCTGCTGGCTGCTTACTCTCATGTAGTTCC
modifications: DNA, backbone not given here
notes: DNA SELEX 2 aptamer clone
B10: AMX237.B12: DNA SELEX 2 aptamer clone (nucleic acid)
DNA: B9 chain with T33C, T34A
modifications: DNA, backbone not given here
notes: DNA SELEX 2 aptamer clone
B11: AMX238.A6: DNA SELEX 2 aptamer clone (nucleic acid)
DNA: B9 chain with T33C, T34A, G36A
modifications: DNA, backbone not given here
notes: DNA SELEX 2 aptamer clone
B12: AMX238.A11: DNA SELEX 2 aptamer clone (nucleic acid)
DNA: B9 chain with A30G
modifications: DNA, backbone not given here
notes: DNA SELEX 2 aptamer clone
B13: AMX237.C1: DNA SELEX 2 aptamer clone (nucleic acid)
DNA: B9 chain with A29G, T33C
modifications: DNA, backbone not given here
notes: DNA SELEX 2 aptamer clone
B14: AMX238.F6: DNA SELEX 2 aptamer clone (nucleic acid)
DNA: B9 chain with A29T, T33C
modifications: DNA, backbone not given here
notes: DNA SELEX 2 aptamer clone
B15: AMX236.E2: DNA SELEX 2 aptamer clone (nucleic acid)
chain: B9 chain with A29T, T33C, G36A
modifications: DNA, backbone not given here
notes: DNA SELEX 2 aptamer clone
B16: AMX236.C6: DNA SELEX 2 aptamer clone (nucleic acid)
chain: B9 chain with A30G, T33C
modifications: DNA, backbone not given here
notes: DNA SELEX 2 aptamer clone
B17: AMX236.H1: DNA SELEX 2 aptamer clone (nucleic acid)
chain: CTACCTACGATCTGACTAGCCTCAGATTGACTCCGGCCGACTTGTTTTAATCTTCTGAGTGCTTACTCTCATGTAGTTCC
modifications: DNA, backbone not given here
notes: DNA SELEX 2 aptamer clone
B18: AMX236.A11: DNA SELEX 2 aptamer clone (nucleic acid)
chain: CTACCTACGATCTGACTAGCTTGGTAGCGACTCTGTGGAGCTGCGGTCTGGCCGACGTCAGCTTACTCTCATGTAGTTCC
modifications: DNA, backbone not given here
notes: DNA SELEX 2 aptamer clone
B19: AMX237.B1: DNA SELEX 2 aptamer clone (nucleic acid)
chain: B18 chain with T32A, T34A, C48T, C52T
modifications: DNA, backbone not given here
notes: DNA SELEX 2 aptamer clone
B20: AMX236.G4: DNA SELEX 2 aptamer clone (nucleic acid)
chain: B18 chain with C33T, C41A, C48T, C52T, C53T
modifications: DNA, backbone not given here
notes: DNA SELEX 2 aptamer clone
B21: AMX237.H10: DNA SELEX 2 aptamer clone (nucleic acid)
DNA: B18 chain with T34A, T36A, C48T, C52T
modifications: DNA, backbone not given here
notes: DNA SELEX 2 aptamer clone
B22: AMX237.D5: DNA SELEX 2 aptamer clone (nucleic acid)
DNA: B18 chain with T32A, C48T, C52T, C53T
modifications: DNA, backbone not given here
notes: DNA SELEX 2 aptamer clone
B23: AMX237.H8: DNA SELEX 2 aptamer clone (nucleic acid)
DNA: B18 chain with C33T, C48T, C52T, G57A
modifications: DNA, backbone not given here
notes: DNA SELEX 2 aptamer clone
B24: AMX236.E6: DNA SELEX 2 aptamer clone (nucleic acid)
chain: B18 chain with T32C, C48T, C52T
modifications: DNA, backbone not given here
notes: DNA SELEX 2 aptamer clone
B25: AMX236.C12: DNA SELEX 2 aptamer clone (nucleic acid)
chain: B18 chain with T34C, C48T, C52T
modifications: DNA, backbone not given here
notes: DNA SELEX 2 aptamer clone
B26: AMX238.A12: DNA SELEX 2 aptamer clone (nucleic acid)
DNA: CTACCTACGATCTGACTAGCCAGTTCTGGGAAAAATTATTTTTTTATTTCGATCGTATATGCTTACTCTCATGTAGTTCC
modifications: DNA, backbone not given here
notes: DNA SELEX 2 aptamer clone
B27: AMX236.C9: DNA SELEX 2 aptamer clone (nucleic acid)
chain: B26 DNA with A59T
modifications: DNA, backbone not given here
notes: DNA SELEX 2 aptamer clone
B28: AMX238.D9: DNA SELEX 2 aptamer clone (nucleic acid)
DNA: CTACCTACGATCTGACTAGCCAGTTCTGGGAAAAATCATTTTTTATTTCGATCGTATTTGCTTACTCTCATGTAGTTCC
modifications: DNA, backbone not given here
notes: DNA SELEX 2 aptamer clone
B29: AMX238.F5: DNA SELEX 2 aptamer clone (nucleic acid)
DNA: CTACCTACGATCTGACTAGCGGAATGAGAAGCTGGTGGATTGCTCAGGTCTGCTGGCTGCTTACTCTCATGTAGTTCC
modifications: DNA, backbone not given here
notes: DNA SELEX 2 aptamer clone
B30: AMX237.H5: DNA SELEX 2 aptamer clone (nucleic acid)
DNA: CTACCTACGATCTGACTAGCTCCAGTGTTTCATTTAATAACCGTGCGGTGCCTCCGTGAGCTTACTCTCATGTAGTTCC
modifications: DNA, backbone not given here
notes: DNA SELEX 2 aptamer clone
B31: AMX236.B3: DNA SELEX 2 aptamer clone (nucleic acid)
chain: CTACCTACGATCTGACTAGCCTTACCTATTCCCTTCTGCGGAATACGTCGAGTACTATGCTTACTCTCATGTAGTTCC
modifications: DNA, backbone not given here
notes: DNA SELEX 2 aptamer clone
B32: AMX236.F7: DNA SELEX 2 aptamer clone (nucleic acid)
chain: CTACCTACGATCTGACTAGCCCCCACTTATCGTGTACCTTATGATATGTCGAATACTCTTGCTTACTCTCATGTAGTTCC
modifications: DNA, backbone not given here
notes: DNA SELEX 2 aptamer clone
B33: AMX238.A3: DNA SELEX 2 aptamer clone (nucleic acid)
DNA: CTACCTACGATCTGACTAGCTCAAAGTATTACTTATTGGCAATAAGTCGTTTACTCTATAGCTTACTCTCATGTAGTTCC
modifications: DNA, backbone not given here
notes: DNA SELEX 2 aptamer clone

Test system: full length human vWF
Assay: 3-point dot blot screen, full length human vWF
Format: binding
Conditions: 20 nM full length human vWF, ratio of fraction of aptamer bound with target protein to fraction bound without protein
Source text: When a significant positive ratio of binding of DNA in the presence of human or rabbit vWF A1 domain versus in the absence of protein was seen, the pools were cloned using the TOPO TA cloning kit (Invitrogen Cat. #45-0641, Carlsbad, Calif.) according to the manufacturer's instructions. Round 7 and 11 pool templates were cloned and sequenced (218 total sequences), producing 146 unique clones within 12 sequence families of which sequences from six families show vWF target binding activity. All unique clones were assayed twice in a 3-point dot blot screen (no protein target control, 20 nM full length human vWF (Calbiochem Cat. #681300, La Jolla, Calif.), or 20 nM rabbit vWF A1 domain. The data is presented in the third and fourth columns of Table 17 below as the ratio of the fraction of the aptamer bound to the nitrocellulose in the presence of the target protein to the fraction of aptamer bound in the absence of the target protein.

Molecule | Screen- Human/No Protein
B1 | 0.97
B2 | 0.98
B3 | 1.02
B4 | 0.98
B5 | 0.99
B6 | 0.97
B7 | 1.09
B8 | 1.11
B9 | 1.03
B10 | 1.13
B11 | 0.92
B12 | 0.85
B13 | 0.76
B14 | 1.18
B15 | 0.93
B16 | 1.06
B17 | 1.10

Molecule | Screen- Human/No Protein
B18 | 2.02
B19 | 2.00
B20 | 1.70
B21 | 1.71
B22 | 1.41
B23 | 1.21
B24 | 1.31
B25 | 1.99
B26 | 1.23
B27 | 1.24
B28 | 1.22
B29 | 1.05
B30 | 1.63
B31 | 1.54
B32 | 1.18
B33 | 1.36

Test system: rabbit vWF A1 domain (SEQ ID NO 6)
Sequence (as listed by the source): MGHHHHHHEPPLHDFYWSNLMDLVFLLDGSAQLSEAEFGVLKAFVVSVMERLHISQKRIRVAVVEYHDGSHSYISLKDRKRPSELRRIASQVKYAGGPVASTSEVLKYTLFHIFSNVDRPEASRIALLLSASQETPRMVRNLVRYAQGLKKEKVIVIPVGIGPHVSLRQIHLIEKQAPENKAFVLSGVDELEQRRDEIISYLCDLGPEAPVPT
Assay: 3-point dot blot screen, rabbit vWF A1 domain
Format: binding
Conditions: 3-point dot blot screen, 20 nM rabbit vWF A1 domain; ratio of fraction of aptamer bound with target protein to fraction bound without protein
Outline: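 Rabbit vWF A1 domain binding was screened by dot blot using three conditions: no target protein, human vWF, and rabbit vWF A1 domain at 100 nM (20 nM in the screen run twice). Radiolabeled aptamer bound to nitrocellulose was quantified, and results are expressed as the ratio of bound fraction with protein to bound fraction without protein.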

Molecule | Screen Rabbit/No Protein
B1 | 1.31
B2 | 1.14
B3 | 1.16
B4 | 1.22
B5 | 1.22
B6 | 1.15
B7 | 1.39
B8 | 1.32
B9 | 3.28
B10 | 4.67
B11 | 3.47
B12 | 4.54
B13 | 3.47
B14 | 5.36
B15 | 3.59
B16 | 5.77
B17 | 1.14

Molecule | Screen Rabbit/No Protein
B18 | 2.02
B19 | 2.10
B20 | 1.72
B21 | 1.94
B22 | 1.48
B23 | 1.41
B24 | 1.49
B25 | 2.24
B26 | 0.99
B27 | 1.00
B28 | 0.97
B29 | 4.40
B30 | 1.61
B31 | 1.41
B32 | 1.20
B33 | 1.03
